In patent publication US11905559B2, “Materials and methods for controlling gene expression” (priority 2016, dated 2024):
Substitutions are numbered along the chain they refer to. Numbers in names are those of the source. Where “and” joins values, the source holds several entries; their conditions need not be identical. Equal values may be shown once.

Experiments:
[1] = Constant-force (CF) single-molecule optical tweezers folding assay of guanine-aptamer RNAs in guanine buffer; type: physicochemical; conditions: for Folding rate kf / Transition distance ΔX / Unfolding rate ku / ΔG (0): 200 nM G; for ΔG (0): zero force
From the text: The aptamer folding was monitored in real time using a constant-force (CF) assay. Equilibrium sampling techniques provide unprecedented insights into the rare events in the course of folding that are otherwise difficult to identify. The technique also allows for determination of the kinetic rates that has not been fully investigated in the guanine riboswitch. The relative dynamics of the helices have been investigated in ensemble and smFRET experiments, which indicated a non-dynamic P1-P3, upon which the P2 helix switches conformations. As shown in FIG. 6A (left panel), the RNA oscillated between the linear and the hairpin conformations (E↔D↔C) at 13 pN. The distances ΔXED=7.1±0.4 nm and ΔXDC=7.9±0.4 nm correspond to the folding of a 17±1 nt (P2) and 19±1 nt (P3) respectively (FIGS. 7A-B). The conversion of distances to nucleotides in CF assay are described in Table 2.
A miniaturized dual beam optical tweezers instrument was constructed with a sampling rate of 0.4, 4 and 40 kHz. Typically, in the tweezers set up (FIGS. 2A-E), a single-molecule of RNA is held between two beads via ˜550 nucleotide (nt) long Handles A and B. Preparation of Handles and the RNA is described in the section above. The streptavidin coated polystyrene bead (diameter 1.5-1.9 μm, Spherotech Inc.) is fixed on a micropipette via suction, and the anti-digoxigenin coated bead (diameter 4.0-4.9 μm, Spherotech Inc.) is held in the dual counter-propagating laser beam. The trap stiffness, K is measured at 0.04-0.06 pN/nm from the power spectrum analysis of the Brownian motion of the trapped bead. For power spectrum analysis, a polystyrene bead with diameter ˜4.6 μm is trapped in the counter-propagating laser beam in aqueous buffer with a fixed trap position. […] The average from 10 beads yielded K˜0.049±0.0008 pN/nm, and the stoke's drag coefficient, y=0.0364±0.0002 pN. s/μm. […] However, the autocorrelation time (τ0) defined as the τ1=1/2πfc as described by Zoldak et al., “Ultrafast folding kinetics and cooperativity of villin headpiece in single-molecule force spectroscopy”. Proc. Natl. Acad. Sci. U.S.A 110, 18156 (2013) sets the detection limit for the observable kinetics, which is different from the sampling frequencies. […] The ACF for the time series of force signal, Fi, with sampling rate δ and N data points, is calculated as,
In a constant-force (CF) experiment, the RNA is held at a preset force through feedback control. The preset force typically fluctuated around the mean with a standard deviation ±0.15 pN. In this mode, data is recorded from 4-40 kHz to capture the fast intermediates. The plots are shown as extension vs. time (as in FIG. 6A). In force-jump (FJ) assay, the force is suddenly jumped from one force to another, and then held constant thereafter, as shown in FIGS. 23A-B.
All FR, CF and FJ experiments were carried out at an ambient temperature, 25±0.5° C. The buffer in the microfluidics contained 10 mM Tris-HCl, pH 7.5 at 25° C., 250 mM NaCl, 3 mM MgCl2, and purine concentrations as indicated in wild-type aptamer. Unless stated otherwise, Mg^2+ concentration in the buffer was maintained at 3 mM in all experiments. The buffer in mutant m1 contained 5 mm Mg^2+ and 1 μM G, and in m3 contained 5 mM Mg^2+ and 200 nM Guanine. For the remaining m2, m4, m5 and m6 mutants, the buffer in single-molecule experiments was supplemented only with 3 mM Mg^2+ and 200 nM Guanine.
In the force-ramp experiment, the trap was moved away (pull cycle) from the micropipette at 200 nm/sec, which corresponded to a loading rate of 7-8 pN/sec. This movement of the trap exerted a tension at the ends of the tethered RNA aptamer. […] In the constant-force (CF) experiment, the RNA was held at a preset force (FIG. 6A). The loading rate in CF experiments was zero. The preset force typically fluctuated around the mean with standard deviation ±0.15 pN. […]

[2] = system: lac Z expression; experiment: β-galactosidase reporter assay (xpt-lacZ fusion); type: cell-based, B. subtilis; conditions: presence and absence of guanine; B. subtilis
Experimental: Kissing-loop mutants were analyzed to determine whether they can exert riboswitch activities by controlling transcription termination, given that the guanine binding was retained in all of them. To test this, a β-galactosidase reporter assay was performed in B.subtilis. […] The gene expression is repressed in wild-type due to the transcription termination in the presence of guanine. […] The fast kissing dynamics between the L2-L3 probably have a stabilizing effect on P1, and therefore an increase in the transcription termination is observed. […] This underscores that the L2-L3 dynamics are directly involved in the P1-helix formation, which affects the terminator hairpin downstream that ultimately results in an alteration of the riboswitch activities.
To assess if the aptamer mutants can exert a transcriptional control similar to the previously reported wild-type xpt-pbuX riboswitch, a xpt-lacZ fusion was constructed as described by Mandal et al., “Riboswitches control fundamental biochemical pathways in Bacillus subtilis and other bacteria”. Cell 113, 577-586 (2003). Briefly, nts −121 to +197 relative to the transcriptional start site of the xpt-pbuX operon from B. subtilis 1A1 (BGSC, Columbus, Ohio) was PCR amplified and cloned upstream of the lacZ reporter gene into pDG1661 vector. After confirming the cloned sequence, plasmid variants were integrated into the amyE locus of the 1A1 strain. Transformants were selected for double markers, specifically for chloramphenicol (5 μg/ml) resistance and sensitivity to spectinomycin (100 μg/ml). Selected B. subtilis colonies were subsequently grown in minimal media (25 g/L K2HPO4·3H2O, 6 g/L KH2PO4, 1 g/L sodium citrate, 0.2 g/l MgSO4·7H2O, 2 g/L Na2SO4, 50 μM FeCl3, 2 μM MnCl2, 50 μg/ml L-Tryptophan, 50 μg/ml L-Lysine, 50 μg/ml L-Methionine, 0.4 g/100 ml glucose, and 0.2 g/100 ml glutamate) at 37° C. with vigorous shaking. Purines were added at a final concentration of 0.1 mg/ml. Cells were harvested at mid-logarithmic growth phase (A600˜0.1-0.4), and resuspended in the above buffer for the reporter assay. The color development was recorded by measuring absorbance, A420 at the end of the reaction with appropriate controls. Data is represented in Miller Units calculated from the following relation:
[formula] where Δt is the total duration taken in the substrate cleavage by […], measured as absorbance, A420. The Miller Units shown in FIG. 4A represents mean±standard deviation from 3 independent experiments, wherein each independent experiment was performed in duplicate.

[3] = Isothermal titration calorimetry (ITC); type: binding
Experimental: For ITC experiments, wild-type G-aptamer and the mutant RNAs were synthesized by in vitro transcription of the DNA template and purified by denaturing polyacrylamide gel electrophoresis (PAGE). The ligand guanine was introduced in the syringe, while the RNA into the sample cell at a final concentration of 10 μM and 1 μM respectively. The concentrations were determined by absorbance reading using ε260=12010 M^−1 cm^−1 (guanine) and ε260=711400 M^−1 cm^−1 (RNA). The buffer in the syringe and the sample cell contained 50 mM K^+ Hepes (pH 7.5), 100 mM KCl, and 10 mM MgCl2. Binding reactions were performed at 30° C. on a MicroCal iTC200 instrument (Malvern) with a reference power of 6 μcal/sec, an initial delay of 60 secs and a stirring speed of 750 rpm. Guanine was titrated into the sample cell in 16 injections (2.5 μl each). The injection rate was 0.5 μl/sec and the spacing between the injections was maintained at 120 sec. Data was baseline corrected and fitted to a single-site binding model to obtain association constant (KA), stoichiometry (n) and binding enthalpy, ΔH. The dissociation constant (KD) and the binding free energy, ΔG was obtained from the fitted parameters using the following relations. All data analysis was performed using the Origin ITC software.
The ITC results are reported as mean±standard deviation from three independent experiments.

[4] = transition C′A (merged C′B and BA), F 6.1 pN, 5 mM Mg^2+
[5] = transition C′A (merged C′B and BA), F 6.1 pN, 3 mM Mg^2+
[6] = transition BA (P1 folding), F 8.5 pN, 3 mM Mg^2+
[7] = transition C′B (L2-L3 folding), F 8.5 pN, 3 mM Mg^2+
[8] = transition DC (P3 folding), F 12.0 pN, 3 mM Mg^2+
[9] = transition ED (P2 folding), F 13.5 pN, 3 mM Mg^2+

B1: m3: m3 mutant guanine sensing aptamer RNA (SEQ ID NO: 4); G38 replaced with adenine in the L2 loop (nucleic acid)
chain: CACUCAUAUAAUCGCGUGGAUAUGACACGCAAGUUUCUACCGGGCACCGUAAAUGUCCGACUAUGGGUG
modifications: RNA, backbone and methylation of C not given here
notes: G38 replaced with adenine in the L2 loop
Equilibrium force F^eq ([1]; transition C′A (merged C′B and BA), 5 mM Mg^2+, 200 nM G (rates at 6.1 pN)): 6 pN and 6.1 ± 0.02 pN
Folding rate kf [1, 4]: 0.8 ± 0.05 s⁻¹
Transition distance ΔX [1, 4]: 12.5 ± 0.4 nm
Unfolding rate ku [1, 4]: 0.69 ± 0.05 s⁻¹
ΔG (0) ([1]; transition C′A (merged C′B and BA), from data at 6.1 pN, 5 mM Mg^2+): −12.7 ± 0.6 kBT
lac Z expression / transcriptional control (in words) [2]: completely de-repressed
KD off relative to wild-type [3]: ~18 fold

B2: m2: m2 mutant guanine sensing aptamer RNA (SEQ ID NO: 3); G37A in L2 and C61U in L3 (nucleic acid)
chain: B1 chain with G24A, A25G, C48U
modifications: RNA, backbone and methylation of C not given here
notes: G37A in L2 and C61U in L3
Equilibrium force F^eq ([1]; transition C′A (merged C′B and BA), 3 mM Mg^2+, 200 nM G (rates at 6.1 pN)): 6 pN and 6.0 ± 0.03 pN
Folding rate kf [1, 5]: 0.53 ± 0.06 s⁻¹
Transition distance ΔX [1, 5]: 12.4 ± 0.4 nm
Unfolding rate ku [1, 5]: 0.8 ± 0.11 s⁻¹
ΔG (0) ([1]; transition C′A (merged C′B and BA), from data at 6.1 pN, 3 mM Mg^2+): −11.9 ± 0.6 kBT
lac Z expression / transcriptional control (in words) [2]: completely de-repressed
KD off relative to wild-type [3]: ~9 fold
Kd ([3]; 30° C., 50 mM K^+ Hepes pH 7.5, 100 mM KCl, 10 mM MgCl2, read-out: KD for guanine): 36 ± 0.2 nM

B3: m8: m8 mutant guanine sensing aptamer RNA (SEQ ID NO: 9); A19G and U77C in the P1 hairpin (nucleic acid)
chain: B1 chain with A6G, A25G, U64C
modifications: RNA, backbone and methylation of C not given here
notes: A19G and U77C in the P1 hairpin
Equilibrium force F^eq ([1]; transition BA (P1 folding), 3 mM Mg^2+, 200 nM G (rates at 8.5 pN)): 8.8 ± 0.2 pN
Folding rate kf [1, 6]: 0.4 ± 0.05 s⁻¹
Unfolding rate ku [1, 6]: 0.2 ± 0.05 s⁻¹
Transition distance ΔX ([1]; transition BA (P1 folding), F 8.5 pN, 3 mM Mg^2+, no helix width adjustment): 9.5 ± 0.3 nm
ΔG (0) ([1]; transition BA (P1 folding), from data at 8.5 pN, 3 mM Mg^2+): −14.3 kBT and −14.3 ± 0.7 kBT
Equilibrium force F^eq ([1]; transition C′B (L2-L3 folding), 3 mM Mg^2+, 200 nM G (rates at 8.5 pN)): 8.4 ± 0.3 pN
Folding rate kf [1, 7]: 1.4 ± 0.2 s⁻¹
Transition distance ΔX [1, 7]: 3.6 ± 0.2 nm
Unfolding rate ku [1, 7]: 1.5 ± 0.2 s⁻¹
ΔG (0) ([1]; transition C′B (L2-L3 folding), from data at 8.5 pN, 3 mM Mg^2+): −7.4 ± 0.5 kBT
Equilibrium force F^eq ([1]; transition DC (P3 folding), 3 mM Mg^2+, 200 nM G (rates at 12.0 pN)): 11.8 ± 0.1 pN
Folding rate kf [1, 8]: 15.9 ± 0.4 s⁻¹
Transition distance ΔX [1, 8]: 7.7 ± 0.2 nm
Unfolding rate ku [1, 8]: 17.5 ± 0.5 s⁻¹
ΔG (0) ([1]; transition DC (P3 folding), from data at 12.0 pN, 3 mM Mg^2+): −15.5 ± 0.6 kBT
Equilibrium force F^eq ([1]; transition ED (P2 folding), 3 mM Mg^2+, 200 nM G (rates at 13.5 pN)): 13.5 ± 0.03 pN
Folding rate kf [1, 9]: 10.5 ± 0.4 s⁻¹
Transition distance ΔX [1, 9]: 7.0 ± 0.2 nm
Unfolding rate ku [1, 9]: 13.2 ± 0.5 s⁻¹
ΔG (0) ([1]; transition ED (P2 folding), from data at 13.5 pN, 3 mM Mg^2+): −16.0 ± 0.7 kBT
lac Z expression / transcriptional control (in words) [2]: stringent control
